Results taken from patent publication US20220289795, “EFFICIENT METHOD FOR PREPARING PPR PROTEIN AND USE OF THE SAME” (EditForce, Inc., published 2022).

Experiments:
Assay in all cases: ELONA; RPB-ELISA
v3.1_PPR17 = target: T1, v3.1_PPR17 (Artificial Sequence); details: tags: luciferase fusion; label: 5'-biotin
T1 chain: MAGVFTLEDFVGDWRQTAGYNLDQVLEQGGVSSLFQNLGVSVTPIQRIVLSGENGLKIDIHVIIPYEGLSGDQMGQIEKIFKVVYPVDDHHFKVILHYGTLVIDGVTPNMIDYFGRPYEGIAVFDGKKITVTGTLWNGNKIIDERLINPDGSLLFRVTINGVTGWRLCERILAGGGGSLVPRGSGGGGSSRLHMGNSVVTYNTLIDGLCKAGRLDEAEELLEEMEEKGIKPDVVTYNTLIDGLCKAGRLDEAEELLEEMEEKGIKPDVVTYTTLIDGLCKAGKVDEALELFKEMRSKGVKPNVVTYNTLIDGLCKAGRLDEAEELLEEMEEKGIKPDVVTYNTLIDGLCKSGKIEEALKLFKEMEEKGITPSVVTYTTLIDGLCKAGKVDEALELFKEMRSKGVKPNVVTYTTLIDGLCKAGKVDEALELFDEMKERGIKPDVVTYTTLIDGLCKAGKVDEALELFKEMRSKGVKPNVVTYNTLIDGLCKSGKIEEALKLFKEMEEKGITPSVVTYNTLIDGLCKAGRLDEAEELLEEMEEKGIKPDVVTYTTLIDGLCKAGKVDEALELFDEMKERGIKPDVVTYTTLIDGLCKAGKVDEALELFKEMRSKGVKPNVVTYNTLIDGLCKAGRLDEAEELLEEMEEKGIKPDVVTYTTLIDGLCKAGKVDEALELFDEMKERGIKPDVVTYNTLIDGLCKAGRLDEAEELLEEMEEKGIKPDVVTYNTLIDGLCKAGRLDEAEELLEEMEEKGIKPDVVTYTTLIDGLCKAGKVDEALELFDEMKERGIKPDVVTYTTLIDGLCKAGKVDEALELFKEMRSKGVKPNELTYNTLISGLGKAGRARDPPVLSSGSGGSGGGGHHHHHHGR

v3.1_PPR18 = target: T2, v3.1_PPR18 (Artificial Sequence); details: tags: luciferase fusion; label: 5'-biotin
T2 chain: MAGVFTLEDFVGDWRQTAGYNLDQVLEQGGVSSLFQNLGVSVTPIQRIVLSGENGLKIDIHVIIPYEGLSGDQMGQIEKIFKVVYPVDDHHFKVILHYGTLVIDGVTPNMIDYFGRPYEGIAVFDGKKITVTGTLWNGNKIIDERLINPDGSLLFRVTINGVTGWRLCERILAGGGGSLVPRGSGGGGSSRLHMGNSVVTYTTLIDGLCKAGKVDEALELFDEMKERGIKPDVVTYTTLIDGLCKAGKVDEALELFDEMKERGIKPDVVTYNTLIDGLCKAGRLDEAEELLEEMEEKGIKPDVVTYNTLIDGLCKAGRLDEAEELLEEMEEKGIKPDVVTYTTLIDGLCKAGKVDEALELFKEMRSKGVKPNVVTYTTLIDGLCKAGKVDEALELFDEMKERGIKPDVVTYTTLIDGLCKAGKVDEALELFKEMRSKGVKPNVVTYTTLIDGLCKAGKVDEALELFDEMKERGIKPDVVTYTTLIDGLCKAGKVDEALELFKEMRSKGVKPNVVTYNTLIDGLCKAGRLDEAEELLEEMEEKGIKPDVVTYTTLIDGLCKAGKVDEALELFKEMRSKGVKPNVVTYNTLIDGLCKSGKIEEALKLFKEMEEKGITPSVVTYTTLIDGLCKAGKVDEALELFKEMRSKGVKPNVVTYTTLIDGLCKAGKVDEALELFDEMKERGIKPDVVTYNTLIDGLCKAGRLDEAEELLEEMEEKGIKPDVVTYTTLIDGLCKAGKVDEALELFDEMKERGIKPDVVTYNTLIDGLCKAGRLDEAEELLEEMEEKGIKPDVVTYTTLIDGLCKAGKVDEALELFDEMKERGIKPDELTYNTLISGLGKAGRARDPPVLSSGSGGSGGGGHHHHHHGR

NL_v2_PPR18 = target: T3, NL_v2_PPR18 (Artificial Sequence); details: tags: N-term luciferase, C-term 6xHis; label: 5'-biotin
T3 chain: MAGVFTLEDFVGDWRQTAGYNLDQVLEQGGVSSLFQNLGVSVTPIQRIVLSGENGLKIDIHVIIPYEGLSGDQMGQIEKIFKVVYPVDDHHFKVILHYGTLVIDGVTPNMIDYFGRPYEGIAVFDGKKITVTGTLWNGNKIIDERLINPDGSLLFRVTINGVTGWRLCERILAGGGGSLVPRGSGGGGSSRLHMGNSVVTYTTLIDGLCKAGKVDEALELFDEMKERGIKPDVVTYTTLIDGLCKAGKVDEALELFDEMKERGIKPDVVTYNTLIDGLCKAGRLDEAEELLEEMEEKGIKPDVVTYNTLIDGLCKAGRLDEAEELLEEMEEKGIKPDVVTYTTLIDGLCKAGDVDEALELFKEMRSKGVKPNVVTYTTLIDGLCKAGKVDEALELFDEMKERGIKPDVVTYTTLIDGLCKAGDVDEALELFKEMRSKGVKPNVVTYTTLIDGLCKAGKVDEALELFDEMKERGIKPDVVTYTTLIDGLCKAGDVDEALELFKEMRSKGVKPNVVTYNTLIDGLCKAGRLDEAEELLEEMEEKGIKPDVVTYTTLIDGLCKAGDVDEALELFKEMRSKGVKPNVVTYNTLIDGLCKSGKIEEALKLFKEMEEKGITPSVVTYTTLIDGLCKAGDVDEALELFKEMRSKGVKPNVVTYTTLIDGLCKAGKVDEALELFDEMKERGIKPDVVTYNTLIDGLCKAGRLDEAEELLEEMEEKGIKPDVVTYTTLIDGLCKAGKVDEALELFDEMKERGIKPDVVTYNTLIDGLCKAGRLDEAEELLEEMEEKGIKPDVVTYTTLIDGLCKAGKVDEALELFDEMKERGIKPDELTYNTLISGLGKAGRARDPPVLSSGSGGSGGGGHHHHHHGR

NL_v2_PPR16 = target: T4, NL_v2_PPR16 (Artificial Sequence); details: tags: N-term luciferase, C-term 6xHis; label: 5'-biotin
T4 chain: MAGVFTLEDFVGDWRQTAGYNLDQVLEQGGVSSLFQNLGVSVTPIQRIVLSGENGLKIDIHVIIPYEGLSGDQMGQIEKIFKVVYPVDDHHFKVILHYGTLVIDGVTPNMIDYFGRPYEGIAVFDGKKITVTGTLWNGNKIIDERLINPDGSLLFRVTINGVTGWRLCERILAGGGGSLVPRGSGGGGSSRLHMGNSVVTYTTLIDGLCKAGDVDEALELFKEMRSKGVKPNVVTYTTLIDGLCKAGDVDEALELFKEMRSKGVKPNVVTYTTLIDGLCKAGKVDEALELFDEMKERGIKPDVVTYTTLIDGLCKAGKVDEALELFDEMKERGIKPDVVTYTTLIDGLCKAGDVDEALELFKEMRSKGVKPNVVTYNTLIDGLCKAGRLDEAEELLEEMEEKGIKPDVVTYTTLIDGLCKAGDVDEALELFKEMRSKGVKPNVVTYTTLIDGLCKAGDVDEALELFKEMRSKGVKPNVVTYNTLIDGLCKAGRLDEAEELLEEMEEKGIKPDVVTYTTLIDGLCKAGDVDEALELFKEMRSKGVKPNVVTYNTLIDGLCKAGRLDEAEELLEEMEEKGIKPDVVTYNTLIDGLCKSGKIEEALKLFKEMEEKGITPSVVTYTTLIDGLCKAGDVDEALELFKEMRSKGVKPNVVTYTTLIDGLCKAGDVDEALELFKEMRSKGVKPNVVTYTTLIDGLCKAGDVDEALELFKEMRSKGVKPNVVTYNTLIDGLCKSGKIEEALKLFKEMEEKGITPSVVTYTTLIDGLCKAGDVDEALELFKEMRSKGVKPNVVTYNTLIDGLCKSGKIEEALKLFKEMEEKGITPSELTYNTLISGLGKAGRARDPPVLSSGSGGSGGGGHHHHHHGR

v3.1_PPR16 = target: T5, v3.1_PPR16 (Artificial Sequence); details: tags: luciferase fusion; label: 5'-biotin
T5 chain: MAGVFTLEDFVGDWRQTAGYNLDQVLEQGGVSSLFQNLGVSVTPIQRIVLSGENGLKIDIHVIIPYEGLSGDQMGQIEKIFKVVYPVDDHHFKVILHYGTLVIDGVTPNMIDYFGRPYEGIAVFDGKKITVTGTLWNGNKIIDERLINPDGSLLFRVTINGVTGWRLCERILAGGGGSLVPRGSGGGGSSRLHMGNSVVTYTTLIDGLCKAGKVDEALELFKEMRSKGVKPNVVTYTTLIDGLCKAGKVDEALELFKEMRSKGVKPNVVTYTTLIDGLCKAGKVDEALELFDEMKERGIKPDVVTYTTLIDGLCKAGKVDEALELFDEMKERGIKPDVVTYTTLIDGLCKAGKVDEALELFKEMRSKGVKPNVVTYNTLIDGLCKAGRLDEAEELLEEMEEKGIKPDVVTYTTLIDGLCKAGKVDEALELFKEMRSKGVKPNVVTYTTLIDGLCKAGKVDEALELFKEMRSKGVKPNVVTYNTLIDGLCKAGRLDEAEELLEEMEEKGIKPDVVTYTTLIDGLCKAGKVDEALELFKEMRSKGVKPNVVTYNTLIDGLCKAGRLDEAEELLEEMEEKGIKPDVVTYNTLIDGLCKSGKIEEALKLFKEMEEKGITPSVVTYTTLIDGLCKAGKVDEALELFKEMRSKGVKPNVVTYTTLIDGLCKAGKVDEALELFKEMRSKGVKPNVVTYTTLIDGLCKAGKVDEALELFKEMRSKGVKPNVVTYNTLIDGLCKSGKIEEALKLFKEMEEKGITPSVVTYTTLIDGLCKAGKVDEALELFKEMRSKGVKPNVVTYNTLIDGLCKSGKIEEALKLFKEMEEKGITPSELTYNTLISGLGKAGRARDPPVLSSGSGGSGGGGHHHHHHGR

GACAUGCUUAUCAGACUGAUGUUGAGACUG (ssRNA) [RNA_17]
binding signal (v3.1_PPR17): 3.3e+07 luminescence

GACAUGCGGUUAGAGAUACAGUGUGGACUG (ssRNA) [RNA_18]
binding signal (v3.1_PPR18): 2.9e+07 luminescence | binding signal (NL_v2_PPR18): 1.1e+07 luminescence

GACAUGCAAGGAUAAUAUCAAACACGACUG (ssRNA) [RNA_16]
binding signal (NL_v2_PPR16): 2.8e+07 luminescence | binding signal (v3.1_PPR16): 6.3e+07 luminescence
